# B1: PMS134: dominant negative mismatch repair protein, expressed from pIRES-PMS134-TK with a C-terminal V5 tag (protein, listed as Homo sapiens)
# chain: RGGSGVASMERAESSSTEPAKAIKPIDRKSVHQICSGQVVLSLSTAVKELVENSLDAGATNIDLKLKDYGVDLIEVSDNGCGVEEENFEGLTLKHHTSKIQEFADLTQVETFGFRGEALSSLCALSDVTISTCHASAKVGT
# modifications: C-terminal V5 tag
# What was measured:
# [1] = test system: cells expressing the HSV-TK gene product; assay: Negative selection with ganciclovir of cultures containing pIRES-PMS134-TK; type: cell-based, human; conditions: HEK293 cultures with pIRES-PMS134-TK; ganciclovir for 5 days, then 10 days in growth media alone
# Method: Once a hypermutable cell line is developed, it can be screened for to identify subclones with novel phenotypes for target discovery and/or product development. Once the subclone with a desired phenotype is identified, it is important to be able to restore the DNA stability within the host cell. In order to accomplish this, one must remove or completely suppress the expression of the mutator gene. Briefly, cultures are grown in the presence of the prodrug ganciclovir (Sigma), which kills cells expressing the HSV-TK gene product for 5 days. After 5 days, cells are grown for 10 days in growth media alone at which time greater than 95% of cells die off. Resistant clones are then picked and expanded in 10 cm petri dishes. Cells are grown for 3 weeks and then a portion is analyzed for PMS134 expression by western blot and RT-PCR. […] Analysis of cells after two months of culture have not observed re-expression of the PMS 134 gene using western or RT-PCR analysis (not shown). […] No de novo instable microsatellites are observed in the GR cells in contrast to the parental IRES-PMS134-TK line as expected.
# 293 cells = assay: Microsatellite instability of endogenous loci using the BAT26 diagnostic marker; type: cell-based, human; conditions: PMS134 expressing 293 cells
# Method: Next, selected clones expressing PMS134 are expanded and analyzed for MMR deficiency using methods as previously described. Briefly, cells containing the pIRES-PMS134-TK vector or control were measured for microsatellite instability of endogenous loci using the BAT26 diagnostic marker as described (Hoang J. M. et al. (1997) Cancer Res. 57:300-303). Cells are harvested and genomic DNA is isolated using the salting out method (Nicolaides, N. C. et al. (1991) Mol. Cell. Biol. 11:6166-6176). DNAs are diluted by limiting dilution to determine the level of sensitivity of the assay. DNAs are PCR amplified using the BAT26F: 5′-[…]-3′ (SEQ ID NO: 25) and the BAT26R: 5′-[…]-3′ (SEQ ID NO: 26) primers in buffers as described (Nicolaides, N. C. et al. (1995) Genomics 30:195-206). Briefly 1 pg to 100 ngs of DNA is amplified using the following conditions: 94° C. for 30 sec, 58° C. for 30 sec, 72° C. for 30 sec for 30 cycles. PCR reactions are electrophoresed on 12% polyacrylamide TBE gels (Novex) or 4% agarose gels and stained with ethidium bromide.
# To measure for microsatellite stability in 293 cells, DNAs were amplified using the reaction conditions above.
Molecule,cells die off [1],effect on mismatch repair (MMR) (293 cells; biochemical and genetic manifestations of MMR deficiency),microsatellite instability (altered BAT26 alleles) (293 cells; no altered alleles in MMR-proficient control cells)
Nc1nc(O)c2ncn(COC(CO)CO)c2n1 [ganciclovir],greater than 95%,,
B1,,robust dominant negative effect,a number of alterations

# From patent US20030165468A1, “Regulated vectors for controlling DNA hypermutability in eukaryotic cells” (priority 2002, published 2003)
